The results in this text go back to the nanobody polyreactivity screen of Harvey et al. (2022).

The nature of this data set: yeast display, Sf9 membrane polyspecificity reagent, FACS + sequencing; frameworks hold sequencing errors. The method in brief: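 A nanobody's polyreactivity label depends on the gate it was sorted from. Yeast display cells were stained with 10% biotinylated, detergent-solubilized Sf9 membrane reagent for 1 hour at 4 °C, enriched on streptavidin microbeads and sorted by FACS. The low and high (top ~1%) gates were set on anti-HA fluorescence for expression and streptavidin fluorescence for reagent binding.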
As for “QVQLVESGGGLVQAGGSLRLSCAASGRIFGIYAMGWYRQAPGKERELVASITDGTITNYADSVKGRFTISRDNAKNTVYLQMNSLKPVDTAVYYCAAGTQAHAYVVRPIEMDYWGQGTQVTVSS”, the “polyreactivity (PSR sort gate)” value is on record as “low polyreactivity”.

Take “QVQLVESGGGLVQAGGSLRLSCAASGRIFGIYAMGWYRQAPGKERELVASITGSSGSTNYADSVKGRFTISRDNAKNTVYLQMNSLKPDDTAVYYCAADIPSYYWWRAYDYWGQGTQVTVSS”: the “polyreactivity (PSR sort gate)” value was “low polyreactivity”.

Take “QVQLVESGGGLVQAGGSLRLSCAASGRIFGIYAMGWYRQAPGKERELVSRITGGGSTNYADSVKGRFTISRDNAKNTVYLQMNSLKPEDTAVYYCAADSYLSVYDPYGYWGQGTQVTVSS”: the “polyreactivity (PSR sort gate)” value is “low polyreactivity”.

Consider “QVQLVESGGGLVQAGGSLRLSCAASGRIFGIYAMGWYRQAPGKERVLVAAISRSGGSTYYADSVKGRFTISRDNAKNTVYLQMNSLKPEDTAVYYCAADSRSWTGYYYWGQGTQVTVSS”, for which the “polyreactivity (PSR sort gate)” value is “high polyreactivity”.

As to “QVQLVESGGGLVQAGGSLRLSCAASGRIFGIYAMGWYRQAPGKESEFVAAISWRTGSTYYADSVKWRFTISRDNAKNTVYLQMNRLNPADTAVYYCAAESASKYGYWVQGTQVTVSS”, the “polyreactivity (PSR sort gate)” value is “high polyreactivity”.

As to “QVQLVESGGGLVQAGGSLRLSCAASGRIFGIYAMGWYRQAPRKERELVASITDGTITNYADSVKGRFTISRDNAKNTVYLQMNSLKPEDTAVYYCAAGTQAHAYVVRPIEMDYWGQGTQVTVSS”, the “polyreactivity (PSR sort gate)” value is “low polyreactivity”.

With “QVQLVESGGGLVQAGGSLRLSCAASGRIFGIYTMGWYRQAPGKERELVAAISRSGGSTYYADSVKGRFTISRDNAKNTVYLQMNSLKPEDTAVYYCAAVPYRFPGYGFDSWGQGTQVTVSS”, the “polyreactivity (PSR sort gate)” value is listed as “high polyreactivity”.

Regarding “QVQLVESGGGLVQAGGSLRLSCAASGRIFGKNAMGWYRQAPGKERELVAAITGSGGNTYYADSVKGRFTISRDNAKNTVYLQMNSLKPEDTAVYYCNTSPRFRRYPDYDYWGQGTQVTVSS”, the “polyreactivity (PSR sort gate)” value is on record as “high polyreactivity”.

Take “QVQLVESGGGLVQAGGSLRLSCAASGRIFGKYAMGWYRPAPGKERELVAAIDGSGSTNYADSVKGRFTISRDNAKNTVYLQMNSLKPEDTAVYYCATDHAQKFRYRSPREYWGEGTQVTVSS”: the “polyreactivity (PSR sort gate)” value is listed as “low polyreactivity”.

Regarding “QVQLVESGGGLVQAGGSLRLSCAASGRIFGKYAMGWYRQAPGKERELVAVITSRDGRTYYADSVKGRFTISRDNAKNTVYLQMNSLIPEDTAVYYCAADYWTGITPDAIGDYWGQGTQVTVSS”, the “polyreactivity (PSR sort gate)” value is recorded as “low polyreactivity”.

In the case of “QVQLVESGGGLVQAGGSLRLSCAASGRIFGKYAMGWYRQAPGKERELVAVITSRDGRTYYADSVKGRFTISRDNAKNTVYLQMNSLKPEDTAVYYCAADLVNGHYYYWGQGTQVTVSS”, the “polyreactivity (PSR sort gate)” value is reported as “low polyreactivity”.

For the sequence “QVQLVESGGGLVQAGGSLRLSCAASGRIFGLNAMGWYRQAPGKETEFVAAITWRGGRTYYADSVKGRFTISRDKANKTVYLQMNSLKPEDTAVYYCAADGGSTLDYFWGQGTQVTVSS”, the “polyreactivity (PSR sort gate)” value was “low polyreactivity”.

“QVQLVESGGGLVQAGGSLRLSCAASGRIFGLYAMGWYRQAPGKERELVATITRRGGSTYYADSVKGRFTISRDNAKNTVYLQMNSLKPEDTAVYYCNVRTLVQHHSSYSSRYDSWGQGTQVTVSS”: the “polyreactivity (PSR sort gate)” value was “high polyreactivity”.

As for “QVQLVESGGGLVQAGGSLRLSCAASGRIFGLYSRGSYRQAPGKERELVAAISSRGGSTYYADSVKGRFTISRDNAKNTVYLQMNSLKPEDTAVYYCARETSYFGPSDYDYWGQGTQVTVSS”, the “polyreactivity (PSR sort gate)” value was “high polyreactivity”.

Turning to “QVQLVESGGGLVQAGGSLRLSCAASGRIFGNNVMGWYRQAPGKERELVASINYSGGSTYYADSVKGRFTISRDNAKNTVYLQMNSLKPEDTAVYYCARSYGWYPWRTSYTVGFYYWGQGTQVTVSS”, the “polyreactivity (PSR sort gate)” value is given as “high polyreactivity”.

On to “QVQLVESGGGLVQAGGSLRLSCAASGRIFGPYAMGWSRQAPGKERELVASISYSGGSTYYADSVKGRFTISRDNAKNTVYLQMNSLKPEDTAVYYCNALSRTAWSYYLYPSTPFDYWGQGTQVTVSS”, for which the “polyreactivity (PSR sort gate)” value is reported as “low polyreactivity”.

Turning to “QVQLVESGGGLVQAGGSLRLSCAASGRIFGPYAMGWYRQAPGKERELVASITRSGGRTYYADSVKGRFTISRDNAKNTVYLQMNSLKPEDSAVYYCAAGGFSKSYYYWGQGSQVTVSS”, the “polyreactivity (PSR sort gate)” value is on record as “high polyreactivity”.

Take “QVQLVESGGGLVQAGGSLRLSCAASGRIFGPYTMGWYRQAPGKEREFVAAITRRGGSTYYADSVKGRFTISRDNAKNTVYLQMNSLKPEDTAVYYCAAVGQKRSLGYSWGQGTQVTVSS”: the “polyreactivity (PSR sort gate)” value is “low polyreactivity”.

With “QVQLVESGGGLVQAGGSLRLSCAASGRIFGPYTMGWYRQAPGKERELVATISYSGSTTYYADSVKWRFTISRDNAKNTVYLQMNSLKPEDTAVYYCNAQYYVFITFDYWGQGTQGTVSS”, the “polyreactivity (PSR sort gate)” value is “high polyreactivity”.

With “QVQLVESGGGLVQAGGSLRLSCAASGRIFGQNAMGWYRQAPGKERELVAAITGSGGRTYYADSVKGRFTISRDNAKNTVYLQMNSLKPEYTAVYYCAVSVTSYYRTMDYWGQGTQVTVSS”, the “polyreactivity (PSR sort gate)” value was “low polyreactivity”.

Regarding “QVQLVESGGGLVQAGGSLRLSCAASGRIFGQYAMGWYRQAPGKEREFVAGISTTGGSTYYADSVKGRFTISRDNAKNTVYLQMNSLKPEDTAVYYCAVRINWSRWYHYYTYNYWGQGTQVTVSS”, the “polyreactivity (PSR sort gate)” value is recorded as “high polyreactivity”.

For “QVQLVESGGGLVQAGGSLRLSCAASGRIFGQYTMGWYRQAPGKERELVAAISRSSSTKYADSVKGRFTISRDNAKNTVYLQMNSLKPEDTAVYYCAAYVYYYGGRTYDYWGQGTQVTVSS”, the “polyreactivity (PSR sort gate)” value was “high polyreactivity”.

Take “QVQLVESGGGLVQAGGSLRLSCAASGRIFGRNAMGWYRQAPGKERELVAGISGRGGITYYADSVKGRFTISRDNAKNTVYLQMNSLKPEDTAVYYCAATGGDYYDFSYWGQGTQVTVSS”: the “polyreactivity (PSR sort gate)” value is “high polyreactivity”.

For “QVQLVESGGGLVQAGGSLRLSCAASGRIFGRNAMGWYRQAPGKERELVASITSGGGTNYADSVKGRFTISRDNAKNTVYLQMNSLKPEDTAVYYCAAKRHLEGYSGSIGRYYYWGQGTQVTVSS”, the “polyreactivity (PSR sort gate)” value is listed as “low polyreactivity”.

Turning to “QVQLVESGGGLVQAGGSLRLSCAASGRIFGRNPMGWYRQAPGKERELVAAITSRGTRTYYADSVKGRFTISRDNAKNTVYLQMISLKPEDTAVYYCNAAYYHSSSYPDYDYWGQGTQVTVSS”, the “polyreactivity (PSR sort gate)” value is “high polyreactivity”.

Take “QVQLVESGGGLVQAGGSLRLSCAASGRIFGRYAMGWYRPAPGKERELVAAISRSGGSTYYADSVKGRFTISRDNAKNTVYLHMNSLKPEDTAVYYCAAERWTRRHYSGNDYWGQGTQVTVSS”: the “polyreactivity (PSR sort gate)” value is “low polyreactivity”.

As for “QVQLVESGGGLVQAGGSLRLSCAASGRIFGRYAMGWYRQAPGKEREFVATITSRGGNTYYADSVKGRFTISRDTAKNSVYLQMNSLKPEDTAVYYCNADYLWFNFYYWGQGTQVTVSS”, the “polyreactivity (PSR sort gate)” value is listed as “low polyreactivity”.

On to “QVQLVESGGGLVQAGGSLRLSCAASGRIFGRYAMGWYRQAPGKERELVAAIPRNGGSTYADSVNGRFTISRDNAKNTVYLQMNILKPEDTAVYYCAKKRGGKKSGPHDYWGQGTQVTVSS”, for which the “polyreactivity (PSR sort gate)” value is “high polyreactivity”.

As to “QVQLVESGGGLVQAGGSLRLSCAASGRIFGRYAMGWYRQAPGKERELVAAISGGGSTNYADSVKGRFTISRDNAKNTVYLQMNSLKPEDTAVYYCAADDDWSGVEFDYWGQGTQVTVSS”, the “polyreactivity (PSR sort gate)” value is listed as “low polyreactivity”.

Take “QVQLVESGGGLVQAGGSLRLSCAASGRIFGRYAMGWYRQAPGKERELVAAISSGGNTYYADSVKGRFTISRDNAKNTVYLQMNSLKPEDTAVYYCKALYYRQPGYDYWGQGTQVTVSS”: the “polyreactivity (PSR sort gate)” value is recorded as “high polyreactivity”.

Consider “QVQLVESGGGLVQAGGSLRLSCAASGRIFGRYAMGWYRQAPGKERELVAAITGRGASTYYADSVKGRFTISRDNAKNTVYLQMNSLKPEDTAVYYCNAFRGAQGTDAYDWGQGTQVTVSS”, for which the “polyreactivity (PSR sort gate)” value is “low polyreactivity”.

In the case of “QVQLVESGGGLVQAGGSLRLSCAASGRIFGRYAMGWYRQAPGKERELVAGITGSSGTTYYADSVKGRFTISLDNAKNTVYLQMNSLKPEDTAVYYCAVETYWHARSHDYWGQGTQVTVSS”, the “polyreactivity (PSR sort gate)” value is given as “low polyreactivity”.

For the sequence “QVQLVESGGGLVQAGGSLRLSCAASGRIFGRYAMGWYRQAPGNERELVAAISRRGSRTYYADSVKGRFTISRDNAKNTVYLQMNSLKPEDTAVYYCNALTGSFKTYSFDYWGQGTQVTVSS”, the “polyreactivity (PSR sort gate)” value is reported as “high polyreactivity”.

Regarding “QVQLVESGGGLVQAGGSLRLSCAASGRIFGRYGMGWYRQAPGKERELVAAISRSGDRTYYADSVKGRFTISRDNAKNTVYLQMNSLKPEDTAVYYCAAYSYRYDYWGQGTQVTVSS”, the “polyreactivity (PSR sort gate)” value is reported as “high polyreactivity”.

On to “QVQLVESGGGLVQAGGSLRLSCAASGRIFGSNTMGWFRQAPGKERELVAAITGDDSTYADSVKGRFTISRDNAKNTVYLQMNSLKPVDTAVYYCAVVWVWDVWFLVYYWGQGTQVTVSS”, for which the “polyreactivity (PSR sort gate)” value is recorded as “low polyreactivity”.

With “QVQLVESGGGLVQAGGSLRLSCAASGRIFGSYAMGWYRQAPGKERELVAAITTDDSTNYADSVKGRFTISRDNAKNTVYLQMNSLKPEDTAVYYCNAERWDELFDSWGQVTQVTVSS”, the “polyreactivity (PSR sort gate)” value is reported as “low polyreactivity”.

“QVQLVESGGGLVQAGGSLRLSCAASGRIFGSYVMGWYRQAPGKERELVAAISRGGSTYYADSVKGRFTISRDNAKNTVYLQLNSLTPEDTAVYYCAAYSIYGTSYLYTQAFYYWGQGTQVTVSS”: the “polyreactivity (PSR sort gate)” value is listed as “high polyreactivity”.

Turning to “QVQLVESGGGLVQAGGSLRLSCAASGRIFGTHDMGWYRQAPGKESELVAAIRATSGSTYYADSVKGRFTISRDNAKNTVYLQMYSLKPEDTAVYYCAAEIWRYNSYIKYWHRVDYWGQGTQVTVSS”, the “polyreactivity (PSR sort gate)” value is “high polyreactivity”.

“QVQLVESGGGLVQAGGSLRLSCAASGRIFGTNAMGWYRQAPGKERELVADITSGGSTNYADSVKGRFTISRDNAKNTVYLQMNSLTPEDTAVYYCAADVIGDLRWYRDEYWGQGTQVTVSS”: the “polyreactivity (PSR sort gate)” value is given as “low polyreactivity”.

On to “QVQLVESGGGLVQAGGSLRLSCAASGRIFGTNAMGWYRQAPGKERELVATITRGGGNTYYADSVKGRFTISRDNAKNTVYLQMNSLKPEDTAVYYCAAKFNRFAWYSHYDYWGQGTLVTVSS”, for which the “polyreactivity (PSR sort gate)” value was “low polyreactivity”.

Turning to “QVQLVESGGGLVQAGGSLRLSCAASGRIFGTNAMGWYRQAPGTEMELDADITSGGSTNYADSVKGRFTISRDNAKNTVYLQMNSLKPEDTAVYYCAADVIGDLRWYREEYWGQGTQVTVSS”, the “polyreactivity (PSR sort gate)” value is recorded as “low polyreactivity”.
